From the nanobody polyreactivity screen of Harvey et al. (2022)

Experiment: yeast display, Sf9 membrane polyspecificity reagent, FACS + sequencing; frameworks hold sequencing errors
Procedure, shortened: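 In a synthetic yeast display library (Saccharomyces cerevisiae BJ5465), nanobody expression was induced with galactose for 36–48 hours. FACS gates were set low and high (top ~1%) using anti-HA fluorescence for expression and streptavidin fluorescence for binding of the Sf9 membrane reagent. Each polyreactivity label is drawn from the gate of origin.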

## QVQHVESGGGLVQAGGSLRLSCAASGITYGRYTMGWYRQAPGKERELVAAITNGDITYYADSVKGRFTISRDNAKNTVYLQMNSLKQEDTAVYYCAADRYFWYDYWGQGTQVTVSS
  polyreactivity (PSR sort gate): high polyreactivity

## QVQHVESGGGLVQAGGSLRLSCAASGLIFTTYAMGWYRQAPGKERELVADINSDGSTYYADSVKGRFTISRDNAKNTVYLQMNSLKPEDTAVYYCAASSYYTITYKLIYWRNYDYWGHGTQVTVSS
  polyreactivity (PSR sort gate): low polyreactivity

## QVQHVESGGGLVQAGGSLRLSCAASGLTFHQYAMGWYRQAPGKERELVAAITGSGGSTYYADSVKGRVTISRDKAKNTVYLQMYSLKPEDTAVYYCAAKTYRRGGGYWGQGSQVTVSS
  polyreactivity (PSR sort gate): high polyreactivity

## QVQHVESGGGLVQAGGSLRLSCAASGLTFKANAMGWYRQAPGKERELVAAITWSGTSTYYADSVKGRFTISRDNAKNTVYLQMNRLKPEDTAVYYCNKPYDVWYHDYDYWGQGTQVTVSS
  polyreactivity (PSR sort gate): low polyreactivity

## QVQHVESGGGLVQAGGSLRLSCAASGLTSRYYAMGWYRQAPGKERELVAAISSRGGRTYYADSVKGPFTISRDNAKNTVYLQMNSLKPEDTAVYYCNAVRGYSGNLRDYWGQGTQVTVSS
  polyreactivity (PSR sort gate): high polyreactivity

## QVQHVESGGGLVQAGGSLRLSCAASGRIFGTNAMGWYRQAPGKERELVAAINGSDSSTYYADSVKGRFTISRDNAKNTVYLQMNSLKPEDTAVYYCNADWSGAPERSTDGYDYWGQGTQVTVSS
  polyreactivity (PSR sort gate): low polyreactivity

## QVQHVESGGGLVQAGGSLRLSCAASGRIFHGYAMGWYRQSPGKERELVAAITSRGGSTYYADSVKGRFTISRDNAKNTVYLQMNSLKPEDTAVYYCNAGRYLYAFDYWGQGTQVTVSS
  polyreactivity (PSR sort gate): low polyreactivity

## QVQHVESGGGLVQAGGSLRLSCAASGRIFPYKAMGWYRQAPGKERELVAAISKSGVRTYYADSVKGRFTISRDNAKNTVYLQMNSLKPEDTAVYYCARGGYPGSAEYDYWGQGTQVTVSS
  polyreactivity (PSR sort gate): high polyreactivity

## QVQHVESGGGLVQAGGSLRLSCAASGRIFPYYAMGWYRQAPGKERELVATITSGGSTYYADSVKGRFTISRDNAKNTVYLQMNSLKPEDTAVYYCAARYPSIYYYSYDYWGQGTQVTVSS
  polyreactivity (PSR sort gate): high polyreactivity

## QVQHVESGGGLVQAGGSLRLSCAASGRIFTFYTMGWYRQAPGKERELVAAINSGGSTYYADSVKGRFTISRDNAKNTVYLQMNSLIQEDTAVYYCNARVYPLWFRRGYDYWGQGTQVTVSS
  polyreactivity (PSR sort gate): high polyreactivity

## QVQHVESGGGLVQAGGSLRLSCAASGRIFTYYTMGWYRQAPGKERELVAAISWSGGRTYYADSVKGRFTISRDNAKNTVYLQMNSLKPEDTAVYYCARLQDSRESPWRGYYWGQGTQVTVSS
  polyreactivity (PSR sort gate): high polyreactivity

## QVQHVESGGGLVQAGGSLRLSCAASGRIIRGNVMGWYRQAPGKERELVATITSSARTYYADSVKGRFTISRDNAKNTVYLQMNSLKPEDTAVYYCANKQPRYRLRMNYWGQGTQVTVSS
  polyreactivity (PSR sort gate): high polyreactivity

## QVQHVESGGGLVQAGGSLRLSCAASGRISQIYAMGWYRQAPGKERELVARITSTDSTYYADSVKGRFTISRDNAKNTVYLQMNSLKPEDTAVYYCAASWWSPYDYWGQGTQVTVSS
  polyreactivity (PSR sort gate): low polyreactivity

## QVQHVESGGGLVQAGGSLRLSCAASGRTFAWYAMGRYRQAPGKERELVAAISSGGSTYYADSVKGRFTISRDNAKNTVYLQMNSLKPEDTAVYYCAAEWHYIYAYDYWGQGTQVTVSS
  polyreactivity (PSR sort gate): low polyreactivity

## QVQHVESGGGLVQAGGSLRLSCAASGRTFFANAMGWYRQAPGKERELVAAITSNTGSTYYADSVKGRFTISRDNAKNTVYLQMNSLKPEDTAVYYCAARGSPRKWTFHYYYWGQGTQVTVSS
  polyreactivity (PSR sort gate): high polyreactivity

## QVQHVESGGGLVQAGGSLRLSCAASGRTFFYNTMGWYRQAPGKERELVARITRGGSTYYADSVKGRFTISRDNAKNTVYLQMNSLKPEDTAVYYCAAGYWRGYLLYGFDYWGQGTQVTVSS
  polyreactivity (PSR sort gate): high polyreactivity

## QVQHVESGGGLVQAGGSLRLSCAASGRTFLKNAMGWYRHAPVKERELVAAITSGGSTNYADSVKGRFTISRDNAKNTVYIQMNSLKPEDTAVYYCNAPSYWYYPVLGSFLTFDYWGQGTQVTVSS
  polyreactivity (PSR sort gate): low polyreactivity

## QVQHVESGGGLVQAGGSLRLSCAASGRTFRKNAMGWYRQAPGKERELVAAITGSSGTTYYADSVKGRFTISRDNAKNTVYLQMNSLKPEDTAVYYCATTVGDPGRRYYYWGQGTQVTVSS
  polyreactivity (PSR sort gate): high polyreactivity

## QVQHVESGGGLVQAGGSLRLSCAASGRTFRNNAMGWYRQAPGKERELVAAITSGGSTYYADSVKGRFTISRDNAKNTVYLQMNSLKPEDTAVYYCAAVPEYYEYSPYDYWGQGTQVTVSS
  polyreactivity (PSR sort gate): low polyreactivity

## QVQHVESGGGLVQAGGSLRLSCAASGRTFRRYAMGWYRQAPGKERELVAVITTGSTYYADSVKGRFTISRDNAKNTVYLQMNSLKPEDTALYYCAADFYRATARYEMDYWGQGTQVTVSS
  polyreactivity (PSR sort gate): high polyreactivity

## QVQHVESGGGLVQAGGSLRLSCAASGRTFSYYTMGWYRQAPGKERELVARISNRGTNTYYADSVKGRFTISRDNAKYTVYLQMNSLKPEDYAVYYCAKYYYTSIVGYDSWGQGTQVTVSS
  polyreactivity (PSR sort gate): low polyreactivity

## QVQHVESGGGLVQAGGSLRLSCAASGRTFVTYAMGWYRQAPGKERELVAAISKRGSRTYYADSVKGRFTISRDNAKNTVYLQMNSLKPEDTAVYYCNADPYRTSYDYWGQGTQVTVSS
  polyreactivity (PSR sort gate): high polyreactivity

## QVQHVESGGGLVQAGGSLRLSCAASGRTFWINAMGWYRQARGKERELVAAITRGGRTYADSVKGRFTISRDNAKNSVYLQMNSLKPEDTAVYFCAADSYRLSGHHGYDFWGQGTQLTVSS
  polyreactivity (PSR sort gate): high polyreactivity

## QVQHVESGGGLVQAGGSLRLSCAASGRTFYSYAMGWYRQAPGKERELVAAINSGGTTYYADSVKGRFTISRDNAKNTVYLEINSLKPEDTAVYYCAAVSYLFLYQGYPIAYPMYYWGQGTQVTVSS
  polyreactivity (PSR sort gate): low polyreactivity

## QVQHVESGGGLVQAGGSLRLSCAASGRTFYSYAMGWYRQAPGKERELVAAISGRGGRTYYADSVKGRFTISRDNAKNTVYLQMNSLKPEDSAVYFCAKGGYAIRYYGFDYWGQGTQVTVSS
  polyreactivity (PSR sort gate): high polyreactivity

## QVQHVESGGGLVQAGGSLRLSCAASGRTLYRYAMGWSRQAPRKERELVAAIRSGGRTNYADSVKGRFTISRDNAKNTVYLQMNSLKPEDTAVYYCAARTLRYPSTFEYWGQGTQVTVSS
  polyreactivity (PSR sort gate): high polyreactivity

## QVQHVESGGGLVQAGGSLRLSCAASGSIFGRYAMGWYRPAPGKERELVAAITRSGVSTYYADSVTGRFTSARDNAKNTVDLQMNSLKPEDTAVYYCNAYYPIRSSPYGYYYWGQGTQVTVSS
  polyreactivity (PSR sort gate): high polyreactivity

## QVQHVESGGGLVQAGGSLRLSCAASGSIFLIYAMGWYRPAPGKERELVAAITGGGTTNYADSVKGRFTISRDNAKHTVYFQMNSLKPEDTAVYYCNTLYLVYLYWTSPTPSDLFDYWGQGTQVTVSS
  polyreactivity (PSR sort gate): low polyreactivity

## QVQHVESGGGLVQAGGSLRLSCAASGSIFNYYAMGWYRQAPGKERELVAAISKTGGSTYYADSVKGRFTISRDNAKNTVYLQMNSLKPEDTAVYYCNAVYASVSPTPYGYWGQGTQVTVSS
  polyreactivity (PSR sort gate): high polyreactivity

## QVQHVESGGGLVQAGGSLRLSCAASGSIFSFNAMGWYRQAPGKERELVASISRNGGSTYYADSVKGRFTISRDNAKNTVYLQMNSLKPEDTAVYYCAVKVRNRRYGYWGQGTQVTVSS
  polyreactivity (PSR sort gate): high polyreactivity

## QVQHVESGGGLVQAGGSLRLSCAASGSIFSIYAMGWYRQAPGKEREFVASITVTDGSTYYADSVKGRFTISRDNAKNTVYLQMNSLKPEDTAVYYCFAVDWYGSGSSYRGSVTYWGQGTQVTVSS
  polyreactivity (PSR sort gate): low polyreactivity

## QVQHVESGGGLVQAGGSLRLSCAASGSIFTSYAMGWSSQAPGKERELVAAITSTGGSTYYADSVKGRFTISRDNAKNTVYLQMNSLKPEDTAVYYCNADGGTPYDYWGQGTQVTVSS
  polyreactivity (PSR sort gate): low polyreactivity

## QVQHVESGGGLVQAGGSLRLSCAASGSIFYQNAMGWYRQAPGKERELVAAISSAGSTYYADSVKGRFTISRDNAKNTVYLQMNSLKPEDTAVYYCARRSSGELGYHIYDYWGQGTQVTVSS
  polyreactivity (PSR sort gate): low polyreactivity

## QVQHVESGGGLVQAGGSLRLSCAASGSIINNYAMGWYRQPPGKERELVADSTYYADSVKGRFTISRDNAKNTVYLQMNSLKPEVTAVYYCAPDDGGGDPEFYWGQGSQVTVSS
  polyreactivity (PSR sort gate): high polyreactivity

## QVQHVESGGGLVQAGGSLRLSCAASGSIISSYAMGRYRQAPGKERELVASISRRGGSTYYADSVKGRFTISRDNAKNTVSLQMNSLKPEDTAVYYCYPSCGPYRYYYCGQGTQVTVSS
  polyreactivity (PSR sort gate): low polyreactivity

## QVQHVESGGGLVQAGGSLRLSCAASGSIIVRYAMGWYRQAPGKERELVASISKRGGSTYYADSVKGRFTISRDNAKNTVYLQMKSLKPDDTAVYYCAAVGYYLVKFDYWGQGTQVTVSS
  polyreactivity (PSR sort gate): high polyreactivity

## QVQHVESGGGLVQAGGSLRLSCAASGSILDGNTMGWYRQSPGKARELVAALTWDCTSTYYADSVKGRFTISRDNAKNSVYLQMNSLKPEDTAVYYCAATKGYSDPSTLYYAYIHYDYWGQGTQVTVSW
  polyreactivity (PSR sort gate): low polyreactivity

## QVQHVESGGGLVQAGGSLRLSCAASGSINSNAMGWYRQARGKERELVAAISGSGSTTYYADSVKGRFTISRDNAKNTVYLKMNSLKPEDTAVYYCARGVYGRGRTERYYWGQGTQVIVSS
  polyreactivity (PSR sort gate): high polyreactivity

## QVQHVESGGGLVQAGGSLRLSCAASGSISKINAMGWYRQAPGKERELVAAINTGDSTYYADSVKGRFTISRDNAKNSVYLQMNSLKPEDSAVYYCAAEGSPTGYDYWGQGTQVTVSS
  polyreactivity (PSR sort gate): low polyreactivity

## QVQHVESGGGLVQAGGSLRLSCAASGSIYYLNAMGWYRQGPGKEWELVAAINRGGSTSYADSVKGRFTISRDNAKNTVYLQMNSLKEADTAVYYCAADHGGVQYSVRYDYWGQGTQLTVSS
  polyreactivity (PSR sort gate): low polyreactivity

## QVQHVESGGGLVQAGGSLRLSCAASGSTFANNAMGWYRQAPGKERELVASITTDGSTNYADSVKGRFTISRDNAKNPVYLQMNSLKPEDSAVYYCAADYHTPSSFAPIELYDYCGQGTQVTVSS
  polyreactivity (PSR sort gate): low polyreactivity

## QVQHVESGGGLVQAGGSLRLSCAASGSTFFKYDMGWYRPAPGTERELVAVITWSGGTTFYADSVKGRFTISRDNANNTVYLQMNSLKPEDTAVSYCAADYYGYRYDYWGQGTQVTVSS
  polyreactivity (PSR sort gate): low polyreactivity

## QVQHVESGGGLVQAGGSLRLSCAASGSTFGGYTMGWSRQAPGTERELVASIRSGGSTYYADSVKGRFTISRDNAKNTVYLQMNSLKPEVTAVYYCAADGRRDRDYWGQGTQVTVSS
  polyreactivity (PSR sort gate): high polyreactivity
